Experimental data: PMC5233613
“Also recorded” adds a separate entry of the source. Blank lines part the entries; values can stand above or below the substance they belong to.

Legend:
LC3B 1-125 [1] = molecular target: LC3B 1-125 (UniProt Q9GZQ8); experiment: ITC
LC3B 1-125 [2] = molecular target: LC3B 1-125 (UniProt Q9GZQ8); experiment: ITC; details: reference: unphosphorylated peptide; sites S13
[3] = reference: wild-type LC3B, sites S17

Substance: FUNDC1 10-25 (from UniProt Q8IVP5) LC3B K49A
- KD (LC3B 1-125 [1]; [3]): weaker; reference 0.59 ± 0.06

Substance: FUNDC1 10-25 (from UniProt Q8IVP5) LC3B K49E
- KD (LC3B 1-125 [1]; [3]): weaker; reference 0.59 ± 0.06

Substance: FUNDC1 10-25 (from UniProt Q8IVP5) pS13 peptide
- KD (LC3B 1-125 [1]; reference: unphosphorylated peptide, sites S13): weaker; reference 1.78 ± 0.16
- KD (LC3B 1-125 [2]): weaker; reference 11.44 ± 1.14; also recorded: weaker; reference 5.62 ± 0.25

The next lines start with the values.

- KD (LC3B 1-125 [1]; [3]): stronger; reference 0.59 ± 0.06
Substance: FUNDC1 10-25 (from UniProt Q8IVP5) LC3B K49R

- KD (LC3B 1-125 [1]; reference: unphosphorylated peptide, sites S17): stronger; reference 1.78 ± 0.16
Substance: FUNDC1 10-25 (from UniProt Q8IVP5) pS17 peptide

- KD (LC3B 1-125 [1]; reference: unphosphorylated peptide, sites Y18): weaker; reference 1.78 ± 0.16
Substance: FUNDC1 10-25 (from UniProt Q8IVP5) pY18 peptide
